Results taken from US20230159631A1 (ME THERAPEUTICS, published 2023).
Substitutions are numbered along the chain they refer to.

How the values were obtained:
[1] = target: T1, recombinant human G-CSF (Genscript) (human, UniProt P09919-2 31-204, limits assumed); assay: SPR (Antigen binding (SPR)); antibody captured on an anti-Fc surface, antigen flowed over; column head Koff (10-4 x s-1)
T1 construct: also called hG-CSF; granulocyte colony stimulating factor
T1 sequence (looked up): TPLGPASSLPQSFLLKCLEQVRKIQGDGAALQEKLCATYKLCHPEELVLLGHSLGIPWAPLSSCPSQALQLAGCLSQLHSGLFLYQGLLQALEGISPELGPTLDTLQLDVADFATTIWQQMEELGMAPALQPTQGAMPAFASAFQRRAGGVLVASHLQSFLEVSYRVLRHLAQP

[2] = target: T1, recombinant human G-CSF (Genscript); assay: SPR (ProteOn), supernatant captured on anti-mouse Fc, human G-CSF analyte, average of two injections
Experimental: (§1) Affinities of clones 2F6, 1B11, 3G5, 10B9, 9B7, 10G1, and 3B3 were measured by SPR. The work was carried out at the National Research Council of Canada (Montreal, Quebec).
(§2) 2.5% supernatants (except variants 1B11.2 and 10B9.1.2 used 4%) were captured on an anti-mouse Fc antibody, flowed with a 30, 10, 3.33, 1.11, and 0.37 nM concentration series of human G-CSF with buffer blank. Association (ka) and dissociation (kd) rates were measured using a BioRad ProteOn™ instrument. Affinity (KD) was calculated as […].

[3] = target: T1, recombinant human G-CSF (Genscript); assay: SPR (Antigen binding (SPR)); antibody captured on an anti-Fc surface, antigen flowed over
[4] = target: T1, recombinant human G-CSF (Genscript); assay: SPR (ProteOn), supernatant captured on anti-mouse Fc, human G-CSF analyte, injection #1
Experimental: as §1, §2

[5] = target: T1, recombinant human G-CSF (Genscript); assay: SPR (ProteOn), supernatant captured on anti-mouse Fc, human G-CSF analyte, injection #2
Experimental: as §1, §2

B1: anti-G-CSF antibody clone 1B11 (antibody, V domains shown)
VH: QVHLQQSGAELARPGASVKMSCKASGYTFPIYTMHWIKQRPGQGLEWIGYINPSIGYANYNQKFRDKATLTADKSSSTAYMQLSSLTSEDSAVYYCARGGYGDSLFAYWGQGTLVTVSA
VL: DIVMTQAAFSNPVTLGTSASISCRSSKSLLHSNGITYLYWYLQKPGQSPQLLIYQMSNLASGVPDRFSSSGSGTDFTLRISRVEAEDVGVYYCAQNLELPYTFGGGTKLEIK
notes: Mouse hybridoma monoclonal antibody; also called 1B11.2; 3A3
[1]
  koff: 5e-05 s⁻¹
[2]
  Kd: 0.064 nM
[3]
  Kd: 0.06 nM
[4]
  Kd: 0.0663 nM
  koff: 5.15e-05 s⁻¹
  kon: 777000 M⁻¹ s⁻¹
[5]
  Kd: 0.0622 nM
  koff: 4.72e-05 s⁻¹
  kon: 758000 M⁻¹ s⁻¹

B2: humanized 1B11 antibody variant 9 (h1L/h3H) (antibody, V domains shown)
VH: QVQLVQSGAEVKKPGASVKVSCKASGYTFPIYTMHWIKQAPGQGLEWIGYINPSIGYANYNQKFRDRATLTADKSTSTAYMELSSLRSEDTAVYYCARGGYGDSLFAYWGQGTLVTVSS
VL: B1 VL with A7S, A8P, F9L, N11L, L15P, T17E, S18P, S69G, R79K, G105Q
notes: variable domains only; also called clone 9
[1]
  koff: 0.00017 s⁻¹
[3]
  Kd: 0.19 nM

B3: humanized 1B11 antibody variant 7 (h1L/h1H) (antibody, V domains shown)
VH: B2 VH with I37V, K38R, I48M, A68V, L70I, K74T
VL: B1 VL with A7S, A8P, F9L, N11L, L15P, T17E, S18P, S69G, R79K, G105Q
notes: also called clone 7; Variant 7 anti-G-CSF antibody
[1]
  koff: 0.00017 s⁻¹
[3]
  Kd: 0.29 nM

B4: humanized 1B11 antibody variant 8 (h1L/h2H) (antibody, V domains shown)
VH: B2 VH with K38R, K74T
VL: B1 VL with A7S, A8P, F9L, N11L, L15P, T17E, S18P, S69G, R79K, G105Q
notes: variable domains only; also called clone 8
[1]
  koff: 0.00017 s⁻¹
[3]
  Kd: 0.29 nM

B5: humanized 1B11 antibody variant 10 (h1L/h4H) (antibody, V domains shown)
VH: B2 VH with Q3H, R67K
VL: B1 VL with A7S, A8P, F9L, N11L, L15P, T17E, S18P, S69G, R79K, G105Q
notes: variable domains only; also called clone 10
[1]
  koff: 0.00015 s⁻¹
[3]
  Kd: 0.16 nM

B6: humanized 1B11 antibody variant 13 (h2L/h2H) (antibody, V domains shown)
VH: B2 VH with K38R, K74T
VL: B1 VL with A7S, A8P, F9L, N11L, L15P, T17E, S18P, R79K, G105Q
notes: variable domains only; also called clone 13
[1]
  koff: 0.00012 s⁻¹
[3]
  Kd: 0.2 nM

B7: humanized 1B11 antibody variant 14 (h2L/h3H) (antibody, V domains shown)
VH: B2 VH
VL: B1 VL with A7S, A8P, F9L, N11L, L15P, T17E, S18P, R79K, G105Q
notes: variable domains only; also called clone 14
[1]
  koff: 0.00013 s⁻¹
[3]
  Kd: 0.15 nM

B8: humanized 1B11 antibody variant 15 (h2L/h4H) (antibody, V domains shown)
VH: B2 VH with Q3H, R67K
VL: B1 VL with A7S, A8P, F9L, N11L, L15P, T17E, S18P, R79K, G105Q
notes: variable domains only; also called clone 15
[1]
  koff: 0.0001 s⁻¹
[3]
  Kd: 0.12 nM

B9: 1B11 antibody variant 1 (cL/cH) (antibody, V domains shown)
VH: B1 VH
VL: B1 VL
notes: also called clone 1; chimeric 1B11
[1]
  koff: 0.00012 s⁻¹
[3]
  Kd: 0.1 nM

B10: anti-G-CSF antibody clone 3B3 (antibody, V domains shown)
VH: QVQLQQSGAELARPGASVKMSCKASGYTFTPYTMHWVKQRPGQDLEWIGYINPSINYTNYNQKFKDKATLTADKSSSTAYMQLSSLTSEDSAVYFCARRGSYGNFDYWGQGTTLTVSS
VL: B1 VL with S26N, Y101L, G105A, I111L
notes: Mouse hybridoma monoclonal antibody; also called 3B3.2; 3B2
[2]
  Kd: 0.31 nM
[4]
  Kd: 0.329 nM
  koff: 0.000301 s⁻¹
  kon: 914000 M⁻¹ s⁻¹
[5]
  Kd: 0.293 nM
  koff: 0.000286 s⁻¹
  kon: 976000 M⁻¹ s⁻¹
